{"source": "patent US20240083974A1", "about": "(ETH Z RICH, published 2024)", "binders": {"B1": {"name": "Grb2-targeting peptide (peptide)", "peptide": "KKWKMRRNPFWIKIQRCCGIRVVDNSPPPPLPPRRRRSAPSPTRV-NH2", "modifications": "cysteine pairing not given here", "notes": "The hyphen between the two Cys may mean two peptides joined by a disulfide; also called P6; protein specifically targeting Grb2"}}, "target": "T1, artificial transmembrane protein with eYFP (enhanced yellow fluorescent protein) as the receptor structure (Aequorea victoria (Water jellyfish) …, UniProt P42212 2-238 = GFP)", "T1 construct": "Control construct in living cells; not shown: Three are signal peptide-SNAPf-PdgfrTM-Li", "assay": "label-free diffraction signal (focal molography) from living cells on a nanopatterned waveguide after injection of the peptide", "note": "Ends that are not written are not given here.", "data": [{"binder": "B1", "values": [{"measurement": "binding result", "value": "no binding"}]}]}
